This note sets out measurements from patent CN114573694A (SHENZHEN HUAJI BIOTECHNOLOGY CO LTD; UNIV SHANGHAI TRAFFIC, dated 2022).

Positions count from the first letter of the chain named. Where only a bound is given, the exact number is not on record here.

Assay [1] concerns the target T1, IL13Rα2 deletion mutant D1-1c (15 residues …, 57-71, deleted) (human, UniProt Q14627 27-343).
T1 construct: also called 突变的IL13Rα2蛋白的D1-1c
T1 sequence: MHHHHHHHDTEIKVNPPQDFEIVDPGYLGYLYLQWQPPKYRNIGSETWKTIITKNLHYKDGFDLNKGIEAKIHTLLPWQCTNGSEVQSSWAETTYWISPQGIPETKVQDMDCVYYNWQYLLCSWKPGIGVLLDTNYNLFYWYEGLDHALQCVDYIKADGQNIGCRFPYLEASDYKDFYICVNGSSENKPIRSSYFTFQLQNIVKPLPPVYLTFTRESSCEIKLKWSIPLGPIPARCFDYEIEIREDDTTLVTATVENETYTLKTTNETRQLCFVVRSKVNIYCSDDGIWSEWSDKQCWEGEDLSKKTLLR
Description: Western blot. For orientation: Immunoblotting shows a protein as a band on a membrane.

Assay [2] concerns the target T2, IL13Rα2 glycine-scan mutant EP1 (human, UniProt Q14627 27-343, limits assumed).
T2 chain: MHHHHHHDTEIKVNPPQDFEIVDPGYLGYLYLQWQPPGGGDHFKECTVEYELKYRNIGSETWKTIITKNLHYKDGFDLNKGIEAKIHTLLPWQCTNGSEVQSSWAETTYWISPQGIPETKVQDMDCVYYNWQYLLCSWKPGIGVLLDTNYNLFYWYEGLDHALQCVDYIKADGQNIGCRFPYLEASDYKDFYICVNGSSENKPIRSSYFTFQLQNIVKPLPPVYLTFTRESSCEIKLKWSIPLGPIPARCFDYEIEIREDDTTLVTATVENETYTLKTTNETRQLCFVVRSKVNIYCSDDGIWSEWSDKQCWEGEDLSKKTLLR
As to the kind of experiment: Western blot, glycine scan mutants.

Assay [3] has as its target T3, IL13Rα2 glycine-scan mutant EP2 (human, UniProt Q14627 27-343).
T3 construct: The changed residues (60-62) are inferred in the same way as for EP1
T3 chain: T2 chain with G38L, G39S, G40L, D41G, H42G, F43G
As to the kind of experiment: Western blot, glycine scan mutants.

The target in assay [4] is T4, IL13Rα2 glycine-scan mutant EP3 (human, UniProt Q14627 27-343).
T4 construct: The changed residues (63-65) are inferred in the same way as for EP1
T4 chain: T2 chain with G38L, G39S, G40L, K44G, E45G, C46G
Description: Western blot, glycine scan mutants.

Assay [5] has as its target T5, IL13Rα2 expressed in lung cancer cells A549 and H460 (fixed, permeabilised cells) (UniProt Q14627 27-380, limits assumed).
T5 construct: whole, on cells; A549 and H460 are human lung cancer lines; also called A549和H460细胞中的IL13Rα2
T5 sequence (looked up): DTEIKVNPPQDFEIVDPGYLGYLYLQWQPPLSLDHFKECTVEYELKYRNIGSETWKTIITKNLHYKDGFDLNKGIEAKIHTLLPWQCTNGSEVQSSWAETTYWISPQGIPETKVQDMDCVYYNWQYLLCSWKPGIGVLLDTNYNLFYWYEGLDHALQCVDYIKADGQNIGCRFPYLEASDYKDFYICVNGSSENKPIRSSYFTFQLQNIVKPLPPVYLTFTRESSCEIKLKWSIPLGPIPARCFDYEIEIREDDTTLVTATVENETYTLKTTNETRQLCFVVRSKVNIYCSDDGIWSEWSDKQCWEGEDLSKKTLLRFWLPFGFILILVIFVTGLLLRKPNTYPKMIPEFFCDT
As to the kind of experiment: immunofluorescence on fixed, permeabilised cells.

In assay [6] the target is T6, IL13Rα2 antigen with His tag, expressed from pMAL in E. coli (IL13Rα2-HIS) (human) (UniProt Q14627).
T6 sequence: T2 chain with G38L, G39S, G40L
As to the kind of experiment: indirect ELISA, antigen coated at 3 μg/ml, serial dilutions of the antibody.

For assay [7], the target named is T7, IL13Rα2 antigen with His tag, expressed from pMAL in E. coli (IL13Rα2-HIS) (human, UniProt Q14627 27-343).
T7 construct: Purified on Ni-NTA; also called IL13Rα2抗原; pMAL-IL13Rα2
T7 sequence: T2 chain with G38L, G39S, G40L
Description: Western blot (Fig. 24).

B1: anti-IL13Rα2 monoclonal antibody mAb15D8 (mouse, from hybridoma) (antibody, mouse IgG1, kappa, V domains shown)
VH: QVTLKESGPGILQPSQTLSLTCSFSGFSLSPSGMGVSWIRQPSGKGLEWLAHIYWDDDKLYNPSLKSRLTISKDTSSNQVFLKITSVDTADTATYYCARRGLRLRAMDYWGQGTSVTVSS
VL: DIVLTQSPASLAVSLGQRATISCRASESVDSYGNSFMHWYQQKPGQPPKLLIYRTSNLESGIPARFSGSGSRTDFTLTINPVEADDVATYYCQQSNEDPFTFGSGTKLEIKR
notes: Purified on Protein G; also called m15D8; 单克隆抗体15D8
B1: the binding result in assay [1] is “no binding”; in assay [2], “no binding”; in assay [3], “no binding”; in assay [4], “no binding”; in assay [5], “binds”. The 效价 (titer) (fold dilution) in assay [6] was > 10000.

B2: recombinantly expressed monoclonal antibody mAb15D8 (293F cells transiently transfected with p15D8MusE) (antibody, mouse IgG1, kappa, V domains shown)
VH: B1 VH
VL: B1 VL
notes: also called 重组表达单克隆抗体mAb15D8; 重组表达抗体
Take B2: the binding result in assay [7] is given as “binds”.
